Laboratory results: patent publication US20230183337A1 (UNIVERSIT D AIXMARSEILLE, published 2023)

Assays:
Nectin-4 (SUM190 cells) = target: T1, Nectin-4 (SUM190 cells) (UniProt Q96NY8 32-510); experiment: FACS
T1 chain: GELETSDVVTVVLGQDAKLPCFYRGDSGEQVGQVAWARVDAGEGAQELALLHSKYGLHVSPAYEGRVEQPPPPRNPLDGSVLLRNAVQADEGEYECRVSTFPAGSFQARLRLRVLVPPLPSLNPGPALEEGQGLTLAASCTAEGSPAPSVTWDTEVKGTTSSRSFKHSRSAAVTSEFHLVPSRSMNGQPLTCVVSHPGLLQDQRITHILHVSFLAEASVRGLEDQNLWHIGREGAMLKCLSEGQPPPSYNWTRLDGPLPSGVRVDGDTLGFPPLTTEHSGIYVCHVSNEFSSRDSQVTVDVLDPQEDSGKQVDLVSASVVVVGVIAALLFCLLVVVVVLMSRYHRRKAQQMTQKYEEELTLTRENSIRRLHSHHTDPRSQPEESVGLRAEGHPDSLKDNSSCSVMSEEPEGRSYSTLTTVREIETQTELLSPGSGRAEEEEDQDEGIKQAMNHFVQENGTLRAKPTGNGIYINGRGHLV

[1] = target: T2, human Nectin-4 (cell surface nectin-4 on SUM190 tumor cells; nectin-4 in breast cancer tissues) (UniProt Q96NY8 32-510); experiment: FACS
T2 chain: T1 chain

[2] = target: T3, human Nectin-4 (cell surface nectin-4 on SUM190 tumor cells; nectin-4 in breast cancer tissues) (human, UniProt Q96NY8 32-510); experiment: FACS on SUM190 cells, serial dilutions of mAb
T3 construct: Endogenous nectin-4 of the human SUM190 breast cancer cell line (FACS) and of patient FFPE tumour tissue (IHC); also called PVRL4
T3 sequence: T1 chain

B1: 14A5 (antibody, V domains shown)
VH: EVLLQQSGPELVKPGASVKIPCKASGYTFTDYTMDWVKQSHGKSLEWIGDINPNNDVTMYNEKFKGRATLTVDKSSSTAYMEVRSLTSEDTAVYYCVRGRGFAYWGQGTLVTVSA
VL: DIVLTQSPASLIVSLGQRATISCRASQSVSTSSNSYMHWYQQKPGQPPKLLIRFASNLESGVPARFSGSGSGTYFTLNIHPVEEEDSATYYCQHSWEIPYTFGGGTKLEIK
EC50 (Nectin-4 (SUM190 cells)): 0.034 µg/mL

B2: N41 (antibody, V domains shown)
VH: QVQLKQSGPGLVQPSQSLSITCTVSGFSLTNYGVHWVRQSPGKGLEWLGVIWSGGSTDYNAAFISRLSISKDTSKSQVFFKMNSLQADDTAIYYCARELIHAMDNWGQGTSVTVSS
VL: DIQMTQSPASLSVSVGETVTITCRASENIYSNLAWYQQKQGNSPQLLVFAATNLADGVPSRFSGSGSGTQYSLKINSLQSEDFGTYYCQHFWGTPTFGGGTKLEIK
EC50 (Nectin-4 (SUM190 cells)): 0.052 µg/mL

B3: murine monoclonal antibody 5A12.2 (hybridoma CNCM I-5407) (antibody, V domains shown)
VH: QIQLQQSGAELVKPGASVTLSCKTSGFTFNSMYISWLKQKPGQSLEWIAWIYAGTGGTRFNQKFTGKVQLTVDTSSSTAYMQFSSLTTDDSAIYYCAIRSGFVPMDYWGQGTSVTVSS
VL: SIVMTQTPKFLLVSAGDRVTITCKASQSVSNDVAWYQQKPGQSPKLLIYYASNRYTGVPDRFTGSGYGTDFTFTISTVQAEDLAVYFCQQDYSSPWTFGGGTKLEIK
notes: Whole murine monoclonal antibody from a hybridoma with a kappa light chain; also called mAb 5A12.2; 5A12.2 mAb
EC50 [1]: 0.018 µg/mL | binding result [2]: binds
